Experimental data as given in patent US8778645B2, “Method for the production of glutaconate” (BASF SE, priority 2009, dated 2014).

Assays:
[1] = biological target: Glutaconate CoA-transferase from A. fermentans (Acidaminococcus fermentans, UniProt Q59111+Q59112); details: Buckel et al. 1981; cited from earlier work
[2] = substrate: CC(C)(COP(=O)(O)OP(=O)(O)OC[C@H]1O[C@@H](n2cnc3c(N)ncnc32)[C@H](O)[C@@H]1OP(=O)(O)O)[C@@H](O)C(=O)NCCC(=O)NCCSC(=O)/C=C/C=C/C(=O)O; test: Substrate kinetics of 2-hydroxyglutaryl-CoA dehydratase with activator; assay type: biochemical, Clostridium symbiosum; details: other: substrate of the dehydratase; pH 7.0
Experimental: (§1) 2-Hydroxyglutaryl-CoA dehydratase activity was measured under anoxic conditions at ambient temperature in cuvettes of 0.5 ml total volume containing 50 mM Mops/KOH pH 7.0, 10 mM dithiothreitol, 5 mM MgCl2, 0.1 mM dithionite, 0.4 mM ATP, and […] with activator. After 10 minutes of incubation the reaction was started with 2 mM acetyl-CoA and 2 mM (R)-2-hydroxyglutarate. The increase of absorbance due to the formation of glutaconyl-CoA was followed at 290 nm (ε=2.2 mM^−1 cm^−1) (Kim J, Darley D J, Buckel W, Pierik A J (2008) An allylic ketyl radical intermediate in clostridial amino-acid fermentation. Nature 452:239-242).
(§2) a) 2-Hydroxyglutaryl-CoA dehydratase from Clostridium symbiosum and activator from Acidaminococcus fermentans

[3] = substrate: CC(C)(COP(=O)(O)OP(=O)(O)OC[C@H]1O[C@@H](n2cnc3c(N)ncnc32)[C@H](O)[C@@H]1OP(=O)(O)O)[C@@H](O)C(=O)NCCC(=O)NCCSC(=O)C(O)CCCC(=O)O; test: as above; assay type: biochemical, Clostridium symbiosum; details: other: substrate of the dehydratase; pH 7.0
Experimental: as §1, §2

[4] = substrate: CC(C)(COP(=O)(O)OP(=O)(O)OC[C@H]1O[C@@H](n2cnc3c(N)ncnc32)[C@H](O)[C@@H]1OP(=O)(O)O)[C@@H](O)C(=O)NCCC(=O)NCCSC(=O)[C@H](O)CCC(=O)O; test: as above; assay type: biochemical, Clostridium symbiosum; details: other: substrate of the dehydratase; pH 7.0
Experimental: as §1, §2

[5] = 2-Hydroxyglutaryl-CoA dehydratase activity in recombinant E. coli BL21; assay type: biochemical, C. symbiosum; details: recombinant E. coli BL21, with activator
Experimental: as §1
(§3) The genes were transformed into modified E. coli BL21-CodonPlus (DE3). An overnight anaerobic preculture (100 ml) of a fresh single colony was used to inoculate 1 liter Standard I medium, described above, containing antibiotics (carbenicillin, 100 μg·ml^−1; chloramphenicol, 50 μg·ml^−1) and grown at the same conditions. When the culture reached OD578=0.2, gene expression was induced with isopropyl-1-thio-β-D-galactoside, IPTG (240 mg·liter^−1) and anhydrotetracycline, AHT (200 μg·liter^−1). […]
(§4) In Table 9 the enzymatic activities are shown, which were measured in the recombinant E. coli strain.

[6] = 2-Hydroxyglutarate dehydrogenase activity in recombinant E. coli BL21; assay type: biochemical, A. fermentans
Experimental: 2-Hydroxyglutarate dehydrogenase activity was measured at ambient temperature in cuvettes of 0.5 ml total volume containing 0.1 M Tris/HCl pH 8.0, 0.2 mM NADH and 2-hydroxyglutarate dehydrogenase at room temperature. After addition of 1 mM α-ketoglutarate, the absorbance decrease of NADH was monitored at 340 nm (ε=6.3 mM^−1 cm^−1) (Bresser J (1997) (R)-2-Hydroxyglutarat-Dehydrogenase aus Acidaminococcus fermentans. PhD Thesis, Philipps-Universitä t Marburg, Germany; Martins B M, Macedo-Ribeiro S, Bresser J, Buckel W, Messerschmidt A (2005) Structural basis for stereo-specific catalysis in NAD^+-dependent (R)-2-hydroxyglutarate dehydrogenase from Acidaminococcus fermentans. Febs J 272:269-281).
as §3, §4

[7] = Glutaconate CoA-transferase activity in recombinant E. coli BL21; assay type: biochemical, A. fermentans
Experimental: Glutaconate CoA-transferase activity assay was performed aerobically at room temperature. The increase of absorbance was followed at 412 nm, Δε=14 mM^−1 cm^−1.
The genes were transformed into modified E. coli BL21-CodonPlus (DE3). An overnight anaerobic preculture (100 ml) of a fresh single colony was used to inoculate 1 liter Standard I medium, described above, containing antibiotics (carbenicillin, 100 μg·ml^−1; chloramphenicol, 50 μg·ml^−1) and grown at the same conditions. When the culture reached OD578=0.2, gene expression was induced with isopropyl-1-thio-β-D-galactoside, IPTG (240 mg·liter^−1) and anhydrotetracycline, AHT (200 μg·liter^−1). Cells were harvested 3 hours after induction (at OD578=0.573), washed and suspended in 20 ml of buffer (50 mM MOPS, 5 mM MgCl2 and 2 mM DTT) under anoxic conditions. The induced E. coli cells were lysed by French press and cell debris was removed by ultracentrifugation at 100 000 g at 4° C. for 1 hour.
as §4

Molecule: O=C(O)CC[C@@H](O)C(=O)O [(R)-2-hydroxyglutarate]
- Substrate of the enzyme [1]: acts on

Molecule: O=C(O)/C=C/CC(=O)O [(E)-glutaconate]
- Substrate of the enzyme [1]: acts on

Molecule: C=CC(=O)O [acrylate]
- Substrate of the enzyme [1]: acts on

Molecule: O=C(O)CCCCC(=O)O [adipate]
- Substrate of the enzyme [1]: acts on

Molecule: CCC(=O)O [propionate]
- Substrate of the enzyme [1]: acts on

Molecule: CC(=O)O [acetate]
- Substrate of the enzyme [1]: acts on

B1: 2-Hydroxyglutaryl-CoA dehydratase from Clostridium symbiosum and activator from Acidaminococcus fermentans ([Clostridium] symbiosum) (protein)
chain 1: MAKQVSPGVLALRKVVDDVHKEAREAKARGELVGWSSSKFPCELAAAFDLNVMYPENQAAGIAANRYGEMMCQAAEDLGYDNDICGYARISLAYAAGVRVSRKYDAETGEYIIDPATGKPLKDAEGNVVIDEATGKPKKDPKTQTPYLVLDNLLEIEALPDGPEKERRLEAISPIRQMRIPQPDFVLCCNNICNCMTKWYENIARMCNVPLIMIDIPYNNTVEVHDDNVKYVRAQFDKAIKQLEELTGKKFDEKKFEKACSNANRTAQAWLKVCDYLQYKPAPYSGFDLFNHMADVVTARARVEAAEAFELLADDLEETVKKGETTTPFPEKYRVMFEGIPCWPKLPNLFKPLKEHGVNVTAVVYAPAFGFVYNNIDEMARAYYKAPNSVCIEQGVDWREGICRDNKVDGVLVHYNRSCKPWSGYMAEMQRRFTEDLGVPCAGFDGDQADPRNFNAAQYETRVQGLVEAMEANKQAKEAK
chain 2: MSINALLDEFKVKAATPKQQLAEYKAQGKKVIGVLPYYAPEELVYAAGMVPMGIWGSNNKTISRAKEYCATFYCTIAQLALEMLLDGTMDQLDGIITPTICDTLRPMSQNFRVAMGDKMAVIFLAQPQNRFEDFGLQFSVDQYTNVKKELEKVAGKEITNEAIQDAIKVYNKSRAARRKFVELASAHCDVITPTKRSAVLKSFFFMEKPEYIEKLEELNAELEKLPVCDWQGTKVVTSGIICDNPKLLEIFEENNIAIAADDVGHESRSFRVDAPEDEADALMALAKQFANMDYDVLLYDPKSTENRRGEFIANMVKESGAQGLVLFMQQFCDPEEMEYPYLKKALNNAGIPHIKLGIDQQMRDFGQASTAIQAFADVLEMQK
- Km [2]: 570 µM
- kcat [2]: 1.9 s⁻¹
- Km [3]: 100 µM
- kcat [3]: 17.4 s⁻¹
- Km [4]: 52 µM
- kcat [4]: 83 s⁻¹

B2: 2-Hydroxyglutaryl-CoA dehydratase + activator: dehydratase (hgdAB) from C. symbiosum with activator (hgdC) from A. fermentans, expressed in E. coli BL21 (protein, listed as Clostridium symbiosum)
chain 1: B1 chain 1
chain 2: B1 chain 2
chain 3: MSIYTLGIDVGSTASKCIILKDGKEIVAKSLVAVGTGTSGPARSISEVLENAHMKKEDMAFTLATGYGRNSLEGIADKQMSELSCHAMGASFIWPNVHTVIDIGGQDVKVIHVENGTMTNFQMNDKCAAGTGRFLDVMANILEVKVSDLAELGAKSTKRVAISSTCTVFAESEVISQLSKGTDKIDIIAGIHRSVASRVIGLANRVGIVKDVVMTGGVAQNYGVRGALEEGLGVEIKTSPLAQYNGALGAALYAYKKAAK
modifications: Acidaminococcus fermentans
- Activity, U [5]: 0.23 U
- Specific activity, U/mg [5]: 0.80 U/mg

B3: 2-Hydroxyglutarate dehydrogenase: enzyme from A. fermentans (hgdH) expressed in recombinant E. coli BL21 (protein)
chain: MKVLCYGVRDVELPIFEACNKEFGYDIKCVPDYLNTKETAEMAAGFDAVILRGNCFANKQNLDIYKKLGVKYILTRTAGTDHIDKEYAKELGFPMAFVPRYSPNAIAELAVTQAMMLLRHTAYTTSRTAKKNFKVDAFMFSKEVRNCTVGVVGLGRIGRVAAQIFHGMGATVIGEDVFEIKGIEDYCTQVSLDEVLEKSDIITIHAPYIKENGAVVTRDFLKKMKDGAILVNCARGQLVDTEAVIEAVESGKLGGYGCDVLDGEASVFGKDLEGQKLENPLFEKLVDLYPRVLITPHLGSYTDEAVKNMVEVSYQNLKDLAETGDCPNKIK
modifications: Acidaminococcus fermentans
notes: enzyme from A. fermentans (hgdH) expressed in recombinant E. coli BL21
- Activity, U [6]: 730 U
- Specific activity, U/mg [6]: 250 U/mg

B4: Glutaconate CoA-transferase: enzyme from A. fermentans (gctAB) expressed in recombinant E. coli BL21 (protein)
chain 1: LSKVMTLKDAIAKYVHSGDHIALGGFTTDRKPYAAVFEILRQGITDLTGLGGAAGGDWDMLIGNGRVKAYINCYTANSGVTNVSRRFRKWFEAGKLTMEDYSQDVIYMMWHAAALGLPFLPVTLMQGSGLTDEWGISKEVRKTLDKVPDDKFKYIDNPFKPGEKVVAVPVPQVDVAIIHAQQASPDGTVRIWGGKFQDVDIAEAAKYTIVTCEEIISDEEIRRDPTKNDIPGMCVDAVVLAPYGAHPSQCYGLYDYDNPFLKVYDKVSKTQEDFDAFCKEWVFDLKDHDEYLNKLGATRLINLKVVPGLGYHIDMTKEDK
chain 2: MADYTNYTNKEMQAVTIAKQIKNGQVVTVGTGLPLIGASVAKRVYAPDCHIIVESGLMDCSPVEVPRSVGDLRFMAHCGCIWPNVRFVGFEINEYLHKANRLIAFIGGAQIDPYGNVNSTSIGDYHHPKTRFTGSGGANGIATYSNTIIMMQHEKRRFMNKIDYVTSPGWIDGPGGRERLGLPGDVGPQLVVTDKGILKFDEKTKRMYLAAYYPTSSPEDVLENTGFDLDVSKAVELEAPDPAVIKLIREEIDPGQAFIQVPTEAK
modifications: Acidaminococcus fermentans
notes: enzyme from A. fermentans (gctAB) expressed in recombinant E. coli BL21
- Activity, U [7]: 0.71 U
- Specific activity, U/mg [7]: 0.25 U/mg
